Measured values published in patent publication US20200268901A1 (Bristol-Myers Squibb, published 2020).
Several values for one entry are separate records, joined by “and”; a condition that tells them apart may be missing. Equal values may be shown once. Read-outs that look alike come from different tables or passages of the source.

What was measured:
[1] = biological target: T1, human CD73 on Calu6 cells (human, UniProt P21589 27-549); assay: cell-based or functional assay
T1 sequence (looked up): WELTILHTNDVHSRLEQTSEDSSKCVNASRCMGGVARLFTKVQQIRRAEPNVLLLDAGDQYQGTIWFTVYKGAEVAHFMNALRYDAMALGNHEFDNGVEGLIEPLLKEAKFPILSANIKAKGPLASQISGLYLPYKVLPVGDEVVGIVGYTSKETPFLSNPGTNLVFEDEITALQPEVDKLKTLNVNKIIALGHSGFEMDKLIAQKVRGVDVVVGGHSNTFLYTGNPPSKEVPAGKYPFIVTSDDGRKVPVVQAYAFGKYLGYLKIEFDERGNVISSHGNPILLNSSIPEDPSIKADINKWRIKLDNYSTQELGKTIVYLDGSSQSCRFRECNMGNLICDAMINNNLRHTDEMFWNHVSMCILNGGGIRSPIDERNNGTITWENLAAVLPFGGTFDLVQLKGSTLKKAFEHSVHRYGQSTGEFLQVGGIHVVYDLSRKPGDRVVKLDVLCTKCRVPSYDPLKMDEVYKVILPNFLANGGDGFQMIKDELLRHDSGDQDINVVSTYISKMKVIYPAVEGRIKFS

[2] = biological target: T1, human CD73 on Calu6 cells; assay: cell-based or functional assay; remark: listed apart in the source
[3] = biological target: T1, human CD73 on Calu6 cells; assay: cell-based or functional assay; remark: listed apart in the source
[4] = biological target: T2, N-hCD73-his (N-terminal domain of human CD73, residues 26-336) (human, UniProt P21589 26-336); assay: SPR (Biacore T100), mAb captured on protein A, N-hCD73-his analyte
T2 construct: not shown: his tag
T2 sequence (looked up): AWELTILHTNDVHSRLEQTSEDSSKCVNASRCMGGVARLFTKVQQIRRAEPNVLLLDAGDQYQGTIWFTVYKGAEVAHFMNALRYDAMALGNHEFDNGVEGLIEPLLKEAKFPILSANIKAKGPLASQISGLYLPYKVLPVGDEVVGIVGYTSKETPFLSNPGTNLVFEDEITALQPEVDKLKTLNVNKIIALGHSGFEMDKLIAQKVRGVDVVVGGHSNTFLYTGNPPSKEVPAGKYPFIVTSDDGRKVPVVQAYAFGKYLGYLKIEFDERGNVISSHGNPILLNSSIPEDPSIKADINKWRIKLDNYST
Procedure: The affinity of the antibodies for human CD73 was measured to determine whether the change of the constant region affects them. The affinities were determined by Surface Plasmon Resonance (SPR) as follows. […] For these experiments, protein A (Pierce) was immobilized to a density of 3000-4000 RU on flow cells 1-4 of a CM5 sensor chip (GE Healthcare) using standard ethyl(dimethylaminopropyl) carbodiimide (EDC)/N-hydroxysuccinimide (NHS) chemistry, with ethanolamine blocking, in a running buffer of 0.01 M HEPES pH 7.4, 0.15 M NaCl, 3 mM EDTA, 0.005% v/v tween 20. […] The running buffer for the kinetic experiments was 10 mM sodium phosphate, 130 mM sodium chloride, 0.05% tween 20, pH 7.1. The surfaces were regenerated after each cycle using two 30 s pulses of 10 mM glycine pH 1.5 at a flow rate of 30 μl/min. Sensogram data was double-referenced and then fitted to a 1:1 Langmuir model using Biacore T100 evaluation software v2.0.4, to determine the association rate constant (ka), the dissociation rate constant (kd), and the equilibrium dissociation constant (KD).

[5] = biological target: T1, human CD73 on Calu6 cells; assay: cell-based or functional assay; remark: listed apart in the source

Binder	T1/2 (hr) of CD73 internalization, Calu6 cells [2] [h]	T1/2 (hr) of CD73 internalization, NCI-H292 cells [2] [h]	Ymax (%) of CD73 internalization, Calu6 cells [2] [%]	Ymax (%) of CD73 internalization, NCI-H292 cells [2] [%]	EC50 (nM) of CD73 internalization, Calu6 cells, 2 h [3] [nM]	Ymax of CD73 internalization (% of 100 nM 11F11) [3] [%]	Kd [4]	koff [4]	kon [4]	further results
CD73.4-IgG2.3G1.1f-KH (antibody, also called CD73.4-IgG2-C219S-IgG1.1f; CD73.4-IgG2CS-IgG1.1f) heavy: QVQLVESGGGVVQPGRSLRLSCAASGFTFSNYGMHWVRQAPGKGLEWVAVILYDGSNKYYPDSVKGRFTISRDNSKNTLYLQMNSLRAEDTAVYYCARGGSSWYPDSFDIWGQGTMVTVSSASTKGPSVFPLAPCSRSTSESTAALGCLVKDYFPEPVTVSWNSGALTSGVHTFPAVLQSSGLYSLSSVVTVPSSNFGTQTYTCNVDHKPSNTKVDKTVERKSCVECPPCPAPPVAGPSVFLFPPKPKDTLMISRTPEVTCVVVDVSHEDPEVKFNWYVDGVEVHNAKTKPREEQYNSTYRVVSVLTVLHQDWLNGKEYKCKVSNKALPSSIEKTISKAKGQPREPQVYTLPPSREEMTKNQVSLTCLVKGFYPSDIAVEWESNGQPENNYKTTPPVLDSDGSFFLYSKLTVDKSRWQQGNVFSCSVMHEALHNHYTQKSLSLSPGK light: not shown	0.351	0.276	81	90.3						T1/2 (hr) of CD73 internalization, Calu6 cells [1]: 0.566 h; T1/2 (hr) of CD73 internalization, NCI-H292 cells [1]: 0.263 h; T1/2 (hr) of CD73 internalization, NCI-H1437 cells [1]: 0.316 h; T1/2 (hr) of CD73 internalization, NCI-H1437 cells (no wash) [1]: 0.342 h; T1/2 (hr) of CD73 internalization, SNU-C1 cells [1]: 0.495 h; T1/2 (hr) of CD73 internalization, SNU-C1 cells (no wash) [1]: 1.02 h; Ymax (%) of CD73 internalization, Calu6 cells [1]: 76.8%; Ymax (%) of CD73 internalization, NCI-H292 cells [1]: 77.6%
CD73.4-IgG2.5G1.1f-KH (antibody) heavy: QVQLVESGGGVVQPGRSLRLSCAASGFTFSNYGMHWVRQAPGKGLEWVAVILYDGSNKYYPDSVKGRFTISRDNSKNTLYLQMNSLRAEDTAVYYCARGGSSWYPDSFDIWGQGTMVTVSSASTKGPSVFPLAPSSRSTSESTAALGCLVKDYFPEPVTVSWNSGALTSGVHTFPAVLQSSGLYSLSSVVTVPSSNFGTQTYTCNVDHKPSNTKVDKTVERKCCVECPPCPAPPVAGPSVFLFPPKPKDTLMISRTPEVTCVVVDVSHEDPEVKFNWYVDGVEVHNAKTKPREEQYNSTYRVVSVLTVLHQDWLNGKEYKCKVSNKALPSSIEKTISKAKGQPREPQVYTLPPSREEMTKNQVSLTCLVKGFYPSDIAVEWESNGQPENNYKTTPPVLDSDGSFFLYSKLTVDKSRWQQGNVFSCSVMHEALHNHYTQKSLSLSPGK light: not shown	0.353	0.299	79.6	90.9						
CD73.4-IgG2.5 (antibody) heavy: QVQLVESGGGVVQPGRSLRLSCAASGFTFSNYGMHWVRQAPGKGLEWVAVILYDGSNKYYPDSVKGRFTISRDNSKNTLYLQMNSLRAEDTAVYYCARGGSSWYPDSFDIWGQGTMVTVSSASTKGPSVFPLAPSSRSTSESTAALGCLVKDYFPEPVTVSWNSGALTSGVHTFPAVLQSSGLYSLSSVVTVPSSNFGTQTYTCNVDHKPSNTKVDKTVERKCCVECPPCPAPPVAGPSVFLFPPKPKDTLMISRTPEVTCVVVDVSHEDPEVQFNWYVDGVEVHNAKTKPREEQFNSTFRVVSVLTVVHQDWLNGKEYKCKVSNKGLPAPIEKTISKTKGQPREPQVYTLPPSREEMTKNQVSLTCLVKGFYPSDIAVEWESNGQPENNYKTTPPMLDSDGSFFLYSKLTVDKSRWQQGNVFSCSVMHEALHNHYTQKSLSLSPGK light: not shown	0.348	0.306	79	89.6						
CD73.4-IgG2.5-plusTHT (antibody) heavy: QVQLVESGGGVVQPGRSLRLSCAASGFTFSNYGMHWVRQAPGKGLEWVAVILYDGSNKYYPDSVKGRFTISRDNSKNTLYLQMNSLRAEDTAVYYCARGGSSWYPDSFDIWGQGTMVTVSSASTKGPSVFPLAPSSRSTSESTAALGCLVKDYFPEPVTVSWNSGALTSGVHTFPAVLQSSGLYSLSSVVTVPSSNFGTQTYTCNVDHKPSNTKVDKTVERKCCVETHTCPPCPAPPVAGPSVFLFPPKPKDTLMISRTPEVTCVVVDVSHEDPEVQFNWYVDGVEVHNAKTKPREEQFNSTFRVVSVLTVVHQDWLNGKEYKCKVSNKGLPAPIEKTISKTKGQPREPQVYTLPPSREEMTKNQVSLTCLVKGFYPSDIAVEWESNGQPENNYKTTPPMLDSDGSFFLYSKLTVDKSRWQQGNVFSCSVMHEALHNHYTQKSLSLSPGK light: not shown	0.287	0.257	80.2	89.6						
11F11 (antibody, human IgG2, kappa, V domains shown, anti-CD73, IgG2; also called 11F11(IgG2)) VH: QVQLVESGGGVVQPGRSLRLSCATSGFTFSNYGMHWVRQAPGKGLEWVAVILYDGSNKYYPDSVKGRFTISRDNSKNTLYLQMNSLRAEDTAVYYCARGGSSWYPDSFDIWGQGTMVTVSS VL: DIQMTQSPSSLSASVGDRVTITCRASQGISSWLAWYQQKPEKAPKSLIYAASSLQSGVPSRFSGSGSGTDFTLTISSLQPEDFATYYCQQYNSYPLTFGGGTKVEIKR					0.58	98	1.6 nM and 0.56 nM	0.00042 s⁻¹ and 0.00016 s⁻¹	260000 M⁻¹ s⁻¹ and 290000 M⁻¹ s⁻¹	
CD73.10-IgG2-C219S (antibody, anti-CD73; also called CD73.10-IgG2CS) heavy: QVQLVESGGGVVQPGRSLRLSCAASGFTFSNYGMHWVRQAPGKGLEWVAVIWYDESNKYYPDSVKGRFTISRDNSKNTLYLQMNSLRAEDTAVYYCARGGSSWYPDSFDIWGQGTMVTVSSASTKGPSVFPLAPCSRSTSESTAALGCLVKDYFPEPVTVSWNSGALTSGVHTFPAVLQSSGLYSLSSVVTVPSSNFGTQTYTCNVDHKPSNTKVDKTVERKSCVECPPCPAPPVAGPSVFLFPPKPKDTLMISRTPEVTCVVVDVSHEDPEVQFNWYVDGVEVHNAKTKPREEQFNSTFRVVSVLTVVHQDWLNGKEYKCKVSNKGLPAPIEKTISKTKGQPREPQVYTLPPSREEMTKNQVSLTCLVKGFYPSDIAVEWESNGQPENNYKTTPPMLDSDGSFFLYSKLTVDKSRWQQGNVFSCSVMHEALHNHYTQKSLSLSPG light: not shown					0.67	99	6.2 nM and 8.3 nM	0.0014 s⁻¹ and 0.0018 s⁻¹	220000 M⁻¹ s⁻¹	% internalization, Calu6 cells [5]: 91%; % internalization, H228 cells [5]: 93%; % internalization, H2030 cells [5]: 85%; % internalization, HCC15 cells [5]: 91%; T1/2 min of internalization, Calu6 cells [5]: 3 min; T1/2 min of internalization, H228 cells [5]: 9.7 min; T1/2 min of internalization, H2030 cells [5]: 3.3 min; T1/2 min of internalization, HCC15 cells [5]: 2.6 min
CD73.10-IgG2-C219S-IgG1.1 (antibody, anti-CD73; also called CD73.10-IgG2CS-IgG1.1f) heavy: QVQLVESGGGVVQPGRSLRLSCAASGFTFSNYGMHWVRQAPGKGLEWVAVIWYDESNKYYPDSVKGRFTISRDNSKNTLYLQMNSLRAEDTAVYYCARGGSSWYPDSFDIWGQGTMVTVSSASTKGPSVFPLAPCSRSTSESTAALGCLVKDYFPEPVTVSWNSGALTSGVHTFPAVLQSSGLYSLSSVVTVPSSNFGTQTYTCNVDHKPSNTKVDKTVERKSCVECPPCPAPPVAGPSVFLFPPKPKDTLMISRTPEVTCVVVDVSHEDPEVKFNWYVDGVEVHNAKTKPREEQYNSTYRVVSVLTVLHQDWLNGKEYKCKVSNKALPSSIEKTISKAKGQPREPQVYTLPPSREEMTKNQVSLTCLVKGFYPSDIAVEWESNGQPENNYKTTPPMLDSDGSFFLYSKLTVDKSRWQQGNVFSCSVMHEALHNHYTQKSLSLSPG light: not shown					0.87	99	5.7 nM and 6.8 nM	0.0014 s⁻¹ and 0.0016 s⁻¹	240000 M⁻¹ s⁻¹ and 230000 M⁻¹ s⁻¹	% internalization, Calu6 cells [5]: 91%; % internalization, H228 cells [5]: 92%; % internalization, H2030 cells [5]: 87%; % internalization, HCC15 cells [5]: 91%; T1/2 min of internalization, Calu6 cells [5]: 3.1 min; T1/2 min of internalization, H228 cells [5]: 9.4 min; T1/2 min of internalization, H2030 cells [5]: 4.3 min; T1/2 min of internalization, HCC15 cells [5]: 3 min
